US20090274695A1 (published 2009)

Key:
[1] = target: T1, Mouse uPAR, full-length, on transfected COS cells (mouse, UniProt P35456 24-298); experiment: AP fusion protein on COS cells transfected with murine uPAR, colorimetric AP assay; bar pattern assigned by bar order and by paragraph 233
T1 construct: whole, on cells; also called murine uPAR
T1 sequence (looked up): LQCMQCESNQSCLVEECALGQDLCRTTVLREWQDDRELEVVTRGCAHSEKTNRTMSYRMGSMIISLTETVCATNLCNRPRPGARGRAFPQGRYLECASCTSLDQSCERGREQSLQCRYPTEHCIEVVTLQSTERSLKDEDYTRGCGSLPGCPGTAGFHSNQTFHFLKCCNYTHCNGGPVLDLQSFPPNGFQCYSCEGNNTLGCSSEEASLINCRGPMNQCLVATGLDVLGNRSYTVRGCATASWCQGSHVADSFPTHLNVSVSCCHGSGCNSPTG

[2] = target: T2, unnamed immobilized partner drawn in Figure 10B; experiment: BIAcore, two-step binding scheme drawn beside the numbers; immobilized partner not named
T2 construct: It is drawn as a chain of three ovals held by a small tag on a cross-shaped capture molecule on the surface; This would fit biotinylated uPAR on avidin, but it carries no label, so it is not assigned to m7 or m13

[3] = target: T2, unnamed immobilized partner drawn in …; experiment: BIAcore, two-step binding scheme. The line is printed 'ka1' a second time, but the unit 1/s and the scheme's kd1 mark it as the dissociation rate of the first step. Immobilized partner not named
[4] = target: T3, Recombinant human uPAR (R&D Systems), immobilized on a CM5 sensor chip (human, UniProt Q03405 23-303, limits assumed); experiment: SPR equilibrium binding, Langmuir single-site fit, three sets of readings; SPR equilibrium binding, uPAR immobilized on the chip
T3 construct: Bought protein, amine-coupled to the chip; also called immobilized uPAR
T3 sequence (Q03405 23-303 limits assumed): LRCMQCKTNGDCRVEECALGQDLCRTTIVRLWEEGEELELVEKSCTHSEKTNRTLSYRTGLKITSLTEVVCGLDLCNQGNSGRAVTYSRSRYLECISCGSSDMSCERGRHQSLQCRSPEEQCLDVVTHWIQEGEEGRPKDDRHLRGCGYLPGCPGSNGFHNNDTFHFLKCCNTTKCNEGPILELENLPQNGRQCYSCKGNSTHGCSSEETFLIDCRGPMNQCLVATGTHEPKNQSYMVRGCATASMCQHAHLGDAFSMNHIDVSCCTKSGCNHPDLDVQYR

[5] = target: T4, Human uPAR (urokinase-type plasminogen activator receptor), full-length, on transfected COS or CHO cells (human, UniProt Q03405 23-305); experiment: homologous competition of purified CYTL1 against CYTL1-AP on uPAR-transfected cells, three independent experiments
T4 construct: whole, on cells; GPI-anchored on the cell surface; also called uPAR-transfected cells
T4 sequence (Q03405 23-305): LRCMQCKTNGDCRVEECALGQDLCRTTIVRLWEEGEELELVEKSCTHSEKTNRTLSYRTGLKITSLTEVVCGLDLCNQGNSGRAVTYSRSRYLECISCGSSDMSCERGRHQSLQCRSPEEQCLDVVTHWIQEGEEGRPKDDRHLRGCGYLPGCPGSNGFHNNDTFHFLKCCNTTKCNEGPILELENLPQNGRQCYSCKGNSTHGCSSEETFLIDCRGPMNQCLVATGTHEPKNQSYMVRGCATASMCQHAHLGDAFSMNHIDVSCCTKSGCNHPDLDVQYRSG

| Binder | binding result [1] | kon [2] [M⁻¹ s⁻¹] | koff [3] [s⁻¹] | Kd [4] [nM] | Kd [5] [nM] |
| --- | --- | --- | --- | --- | --- |
| Human CYTL1-alkaline phosphatase fusion protein (other, Expressed in 293 cells from a pRK5-based vector and used as cell-conditioned medium; also called CYTL1-AP; human CYTL1-AP; not shown: Human placental alkaline phosphatase (AP)) TPPTCYSRMRALSQEITRDFNLLQVSEPSEPCVRYLPRLYLDIHNYCVLDKLRDFVASPPCWKVAQVDSLKDKARKLYTIMNSFCRRDLVFLLDDCNALEYPIPVTTVLPDRQR | no binding | 570000 | 0.018 | – | – |
| Purified human CYTL1 (cytokine-like 1), expressed in insect cells, poly-histidine tag cleaved (ligand, also called purified CYTL1; PRO4425) TPPTCYSRMRALSQEITRDFNLLQVSEPSEPCVRYLPRLYLDIHNYCVLDKLRDFVASPPCWKVAQVDSLKDKARKLYTIMNSFCRRDLVFLLDDCNALEYPIPVTTVLPDRQR | – | – | – | 1100 | ~1500 |
